Results from patent US20240084003A1 (SIMCERE ZAIMING PHARMACEUTICAL, published 2024).

Tests used:
[1] = target: T1, human CD22-ECD-His protein (human, UniProt P20273 20-687); test: ELISA, Ab 0.0001 nM
T1 construct: Made in house in HEK293E; also called hCD22-ECD-His; recombinant human CD22-ECD His protein; not shown: His tag
T1 sequence: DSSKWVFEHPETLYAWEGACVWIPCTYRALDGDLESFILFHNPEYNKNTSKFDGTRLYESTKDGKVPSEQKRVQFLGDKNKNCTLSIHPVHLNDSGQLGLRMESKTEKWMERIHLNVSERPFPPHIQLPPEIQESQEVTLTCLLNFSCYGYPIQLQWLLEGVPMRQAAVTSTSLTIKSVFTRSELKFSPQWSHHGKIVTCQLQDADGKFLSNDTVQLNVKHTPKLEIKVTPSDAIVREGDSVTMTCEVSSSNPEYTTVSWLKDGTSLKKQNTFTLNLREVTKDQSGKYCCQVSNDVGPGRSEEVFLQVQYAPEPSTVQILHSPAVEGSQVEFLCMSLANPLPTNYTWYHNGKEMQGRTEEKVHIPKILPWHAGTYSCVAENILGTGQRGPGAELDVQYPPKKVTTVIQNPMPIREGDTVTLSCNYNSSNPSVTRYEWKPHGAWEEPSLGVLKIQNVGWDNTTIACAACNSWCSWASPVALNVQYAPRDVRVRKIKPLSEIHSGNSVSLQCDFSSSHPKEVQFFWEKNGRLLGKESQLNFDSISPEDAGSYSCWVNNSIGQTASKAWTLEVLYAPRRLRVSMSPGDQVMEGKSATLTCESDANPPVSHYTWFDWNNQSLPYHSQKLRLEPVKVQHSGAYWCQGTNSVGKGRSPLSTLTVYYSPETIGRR
Protocol: (§1) In order to detect the binding activity of CD22 human-murine chimeric antibodies to CD22 protein, the purified human CD22-ECD-His protein obtained in Example 2 was diluted with PBS to a final concentration of 2 μg/mL, and then added to 96-well ELISA plate at 100 μl/well. The plate was sealed with plastic film and incubated overnight at 4° C., the plate was washed 2 times with PBS the next day, and then a blocking solution [PBS+2% (w/w) BSA] was added for blocking at room temperature for 2 hours. […] After incubation at 37° C. for 2 hours, the plate was washed 3 times with PBS. HRP (horseradish peroxidase)-labeled secondary antibody (purchased from Sigma, catalog number: A0170) was added, and incubated at 37° C. for 2 hours, and the plate was washed 5 times with PBS. TMB substrate was added at 50 μl/well, and incubated at room temperature for 30 minutes, then a stop solution (1.0 N HCl) was added at 50 μl/well.

[2] = target: T2, murine CD22 protein (ACROBiosystems, SI2-M52Ha) (murine, UniProt P35329 22-708); test: ELISA, murine CD22-ECD-His coated
T2 construct: extracellular domain; also called murine CD22-ECD; murine CD22-ECD-His
T2 sequence (looked up): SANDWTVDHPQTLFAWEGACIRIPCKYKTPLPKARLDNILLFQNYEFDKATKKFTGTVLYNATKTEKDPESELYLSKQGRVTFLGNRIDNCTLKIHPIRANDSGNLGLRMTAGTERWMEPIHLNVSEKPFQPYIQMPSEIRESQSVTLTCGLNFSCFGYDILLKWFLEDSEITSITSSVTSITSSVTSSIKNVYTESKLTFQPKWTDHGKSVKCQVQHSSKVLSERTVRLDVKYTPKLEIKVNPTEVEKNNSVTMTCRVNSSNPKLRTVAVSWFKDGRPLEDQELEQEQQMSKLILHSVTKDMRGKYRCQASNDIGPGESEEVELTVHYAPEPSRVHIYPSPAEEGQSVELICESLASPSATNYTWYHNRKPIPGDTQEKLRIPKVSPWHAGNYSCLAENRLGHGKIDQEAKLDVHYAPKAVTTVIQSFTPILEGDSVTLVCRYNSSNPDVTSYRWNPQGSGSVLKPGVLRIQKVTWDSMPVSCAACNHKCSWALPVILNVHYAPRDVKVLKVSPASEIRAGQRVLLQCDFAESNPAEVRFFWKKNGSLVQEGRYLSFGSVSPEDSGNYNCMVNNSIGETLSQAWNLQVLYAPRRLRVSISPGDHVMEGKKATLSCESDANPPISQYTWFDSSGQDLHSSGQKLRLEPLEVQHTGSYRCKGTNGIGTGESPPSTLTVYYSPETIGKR
Protocol: as §1
(§2) In order to detect the species cross-binding activity of the chimeric antibodies, an ELISA plate was coated with commercial murine CD22 protein (ACROBiosystems, catalog number: SI2-M52Ha) and monkey CD22 protein (ACROBiosystems, catalog number: SI2-R52Ha), respectively, and the ELISA detection was performed according to the method in Example 5.1.

[3] = target: T1, human CD22-ECD-His protein; test: ELISA, Ab 0.00001 nM
Protocol: as §1

human CD22 domain5-7-His = target: T3, human CD22 domain5-7-His (human, UniProt P20273 414-687); test: ELISA, human CD22 domain5-7-His coated
T3 construct: also called hCD22 domain5-7-His; not shown: His tag
T3 sequence: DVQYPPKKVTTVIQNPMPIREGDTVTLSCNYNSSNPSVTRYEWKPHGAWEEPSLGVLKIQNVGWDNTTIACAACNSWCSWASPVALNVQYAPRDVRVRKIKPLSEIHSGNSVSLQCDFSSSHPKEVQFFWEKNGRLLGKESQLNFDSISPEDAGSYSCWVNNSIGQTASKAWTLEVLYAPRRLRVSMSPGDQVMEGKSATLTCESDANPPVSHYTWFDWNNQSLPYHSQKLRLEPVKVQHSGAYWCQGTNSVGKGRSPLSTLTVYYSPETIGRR

[4] = target: T1, human CD22-ECD-His protein; test: ELISA, Ab 0.001 nM
Protocol: as §1

[5] = target: T1, human CD22-ECD-His protein; test: ELISA, Ab 10.00 nM
Protocol: as §1

[6] = target: T1, human CD22-ECD-His protein; test: ELISA, Ab 0.10 nM
Protocol: as §1

[7] = target: T1, human CD22-ECD-His protein; test: ELISA, human CD22-ECD-His coated
Protocol: as §1

[8] = target: T4, monkey CD22 protein (ACROBiosystems, SI2-R52Ha) (monkey (rhesus monkey in paragraph 148), UniProt H9G1X2 18-686); test: ELISA, monkey CD22-ECD-His coated
T4 construct: extracellular domain; also called monkey CD22-ECD; monkey CD22-ECD-His
T4 sequence: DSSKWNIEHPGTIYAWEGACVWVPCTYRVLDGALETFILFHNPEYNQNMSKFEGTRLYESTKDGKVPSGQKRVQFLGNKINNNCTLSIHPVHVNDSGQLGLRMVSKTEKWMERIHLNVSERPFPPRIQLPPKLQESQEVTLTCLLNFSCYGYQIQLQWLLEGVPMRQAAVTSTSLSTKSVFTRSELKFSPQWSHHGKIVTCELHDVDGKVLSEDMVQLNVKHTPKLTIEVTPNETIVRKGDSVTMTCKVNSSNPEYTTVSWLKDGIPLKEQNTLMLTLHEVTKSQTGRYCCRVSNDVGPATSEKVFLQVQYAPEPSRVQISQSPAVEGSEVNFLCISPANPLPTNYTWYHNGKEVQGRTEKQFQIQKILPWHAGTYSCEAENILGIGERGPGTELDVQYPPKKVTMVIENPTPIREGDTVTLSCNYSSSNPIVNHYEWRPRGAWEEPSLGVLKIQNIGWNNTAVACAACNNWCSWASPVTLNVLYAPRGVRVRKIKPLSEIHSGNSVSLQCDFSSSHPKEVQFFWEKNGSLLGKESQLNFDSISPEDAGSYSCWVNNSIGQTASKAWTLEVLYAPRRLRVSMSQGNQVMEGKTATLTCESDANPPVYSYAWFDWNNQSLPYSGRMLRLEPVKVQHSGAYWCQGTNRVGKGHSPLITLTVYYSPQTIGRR
Protocol: as §1, §2

[9] = target: T1, human CD22-ECD-His protein; test: ELISA, Ab 0.01 nM
Protocol: as §1

[10] = target: T1, human CD22-ECD-His protein; test: ELISA, Ab 100.00 nM
Protocol: as §1

human CD22 domain1-4-His = target: T5, human CD22 domain1-4-His (human, UniProt P20273 20-425); test: ELISA, human CD22 domain1-4-His coated
T5 construct: also called hCD22 domain1-4-His; not shown: His tag
T5 sequence: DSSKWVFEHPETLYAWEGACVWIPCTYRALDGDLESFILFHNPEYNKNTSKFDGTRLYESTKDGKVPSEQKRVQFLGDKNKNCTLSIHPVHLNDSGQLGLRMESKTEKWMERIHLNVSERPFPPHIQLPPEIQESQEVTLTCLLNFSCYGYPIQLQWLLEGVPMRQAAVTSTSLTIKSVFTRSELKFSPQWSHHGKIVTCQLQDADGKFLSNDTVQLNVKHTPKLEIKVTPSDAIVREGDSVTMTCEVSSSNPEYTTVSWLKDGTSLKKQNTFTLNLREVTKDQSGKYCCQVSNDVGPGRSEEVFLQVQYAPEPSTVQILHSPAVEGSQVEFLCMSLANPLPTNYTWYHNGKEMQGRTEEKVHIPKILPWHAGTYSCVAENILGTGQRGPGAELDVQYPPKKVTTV

Binder | OD450 [1] | binding result [2] | OD450 [3] | binding result (human CD22 domain5-7-His) | OD450 [4] | OD450 [5] | OD450 [6] | EC50 (read off the curve) [7] | EC50 (read off the curve) [8] | OD450 [9] | OD450 [10] | EC50 (read off the curve) (human CD22 domain5-7-His) | binding result (human CD22 domain1-4-His)
F2.173.9 (antibody, human IgG1, lambda, V domains shown, Human-murine chimeric IgG1, lambda) VH: EVQLVESGGDLVKPGESLKLSCEASGFTFSNYAMSWVRQTPDRRLEWVATISSIGSFTYYSDSVKGRFTISRDNVKSTLHLQMNNLKSGDTAIYFCARLGVYFDSWGQGTTLTVSS VL: QLVLTQSSSASFSLGASAKLTCTLSSQHSTYTIEWYQQQPHKPPKFVMEIKKDGSHYTGDGIPDRFSGSSSGADRYLSISNIQPEDETIYICGVSDMIKDQFVYVFGGGTKVTVLG | 0.32 OD450 | no binding (tested: 100 nM) | 0.18 OD450 | no binding (tested: 100 nM) | 0.65 OD450 | 1.97 OD450 | 1.93 OD450 | ~0.03 nM | 0.1 to 1 nM | 1.52 OD450 | 2.32 OD450 |  | 
F1.250.16 (antibody, human IgG1, kappa, V domains shown, Human-murine chimeric IgG1, kappa) VH: QVQLQQSGAEQVKPGASVKMSCKASGYTFTTYPIEWMKQNHGESLDWIGNIHPYNDDTEYNEKFKGKATLTVEKSSNTVFLELSRLTSDDSAVYYCVRGDYYNSRYWYFDVWGTGTTVTVSS VL: DIVMTQSQKFMSTTVGDRVSITCKAGQNVRTAVAWYQQKPGQSPKLLIYSASTRYIGVPERFTGSGSGTDFTLTITNMQSEDLADYFCQQYSSFPLTFGTGTKLELKR | 0.21 OD450 | no binding (tested: 100 nM) | 0.12 OD450 | no binding (tested: 100 nM) | 0.86 OD450 | 2.56 OD450 | 2.58 OD450 | ~0.02 nM | ~0.02 nM | 2.24 OD450 | 3.07 OD450 |  | 
F1.172.13 (antibody, human IgG1, kappa, V domains shown, Human-murine chimeric IgG1, kappa) VH: QVTLKESGPGILQSSQTLSLTCSFSGFSLSTSGMGVSWIRQPSGKGLEWLAHIYWDDDKRYNPSLKSRLTISKDTSRNQVFLKITSVDTADTATYYCARAPPPNWDEYYFDYWGQGTTLTVSS VL: DIQMTQSPASLSASVGETVTITCRASGNIHNSLAWYQQKQGKSPQLLVHNAKTLADGVPSRFSGSGSGTQYSLKINSLQPEDFGSYYCQHFWSTPPFGGGTKLEIKR | 0.17 OD450 | no binding (tested: 100 nM) | 0.1 OD450 | no binding (tested: 100 nM) | 0.74 OD450 | 2.51 OD450 | 2.53 OD450 | ~0.03 nM | ~0.03 nM | 2.11 OD450 | 2.87 OD450 |  | 
F2.151.13 (antibody, human IgG1, lambda, V domains shown, Human-murine chimeric IgG1, lambda) VH: QVHLQQPGTELMKPGASVKLSCKATGYTFRDYWLEWVKQRPGHGLEWIGEILPGSGNAYYNEKFKGKATFTADTSSNTAYMQLSSLTTEDSAIYYCARVYSNWYFDAWGKGTTVTVSS VL: QAVVTQESALTTSPGETVTLTCRSSTGAVTTSNYANWVQEKPDHLFTGLIGGTNNQAPGVPARFSGSLIGDKAALTISGAQTEDEAIYFCALWFSNHWVFGGGTKLTVLG | 0.2 OD450 | no binding (tested: 100 nM) | 0.1 OD450 |  | 0.64 OD450 | 2.6 OD450 | 2.55 OD450 | ~0.04 nM |  | 2.1 OD450 | 3.28 OD450 | ~0.05 nM | no binding (tested: 100 nM)
